Test results published in US20240209076A1 (KODIAK SCIENCES, published 2024).

target: T1, recombinant human IL-6 (human, UniProt P05231 30-212); assay: SPR (Biacore), supernatant IgG on Protein A, 25 C
T1 construct: Flowed in solution over the captured antibodies
Experimental: Antibodies were captured on a Protein A chip (GE) by injecting 1:20 dilution of cell supernatant at 10 μL/min for 60 seconds. […] The sensor chip was regenerated by a 60 seconds injection of 10 mM Glycine pH 1.7 at flow rate of 50 μL/min. […] For this setup, 1 μg/mL of purified antibody was injected over a Protein A chip at 10 μL/min for 25-28 seconds. Data analysis for supernatant and purified samples were performed using BIAevaluation software (GE). All sensorgrams were double reference subtracted and fit using a 1:1 Langmuir binding model.

T1 sequence (P05231 30-212 limits assumed): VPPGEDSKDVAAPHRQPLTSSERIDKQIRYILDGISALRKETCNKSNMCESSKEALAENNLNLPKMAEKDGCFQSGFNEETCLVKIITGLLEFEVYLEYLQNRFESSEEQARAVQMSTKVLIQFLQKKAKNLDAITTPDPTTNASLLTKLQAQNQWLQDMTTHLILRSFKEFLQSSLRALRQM

Kd [nM]	koff [s⁻¹]	kon [M⁻¹ s⁻¹]	Binder
1.34	0.000703	525000	anti-IL-6 antibody, heavy chain Y104V, light chain WT (antibody, IgG1, V domains shown, Full IgG1 tested; V domains derived as in m2) VH: EVQLVESGGGLVQPGGSLRLSCAASGFTFSPFAMSWVRQAPGKGLEWVAKISPGGSWTYYSDTVTGRFTFSLDTSKSTAYLQMNSLRAEDTAVYYCARQLWGYVALDIWGQGTLVTVSS VL: DIQLTQSPSSLSASVGDRVTITCSASISVSYMYWYQQKPGKAPKLLIYDMSNLASGVPSRFSGSGSGTDFTLTISSLQPEDFATYYCMQWSGYPYTFGQGTKVEIK
0.423	0.000231	546000	anti-IL-6 antibody, heavy chain Y103S, light chain WT (antibody, IgG1, V domains shown, Full IgG1 tested; V domains derived as in m2) VH: EVQLVESGGGLVQPGGSLRLSCAASGFTFSPFAMSWVRQAPGKGLEWVAKISPGGSWTYYSDTVTGRFTFSLDTSKSTAYLQMNSLRAEDTAVYYCARQLWGSYALDIWGQGTLVTVSS VL: DIQLTQSPSSLSASVGDRVTITCSASISVSYMYWYQQKPGKAPKLLIYDMSNLASGVPSRFSGSGSGTDFTLTISSLQPEDFATYYCMQWSGYPYTFGQGTKVEIK

target: human IL-6 (human, UniProt P05231 30-212); assay: SPR Biacore, supernatant, Protein A capture, 37 C
Sequence (P05231 30-212 limits assumed): as the sequence (P05231 30-212 limits assumed) above
Experimental: Those four positions were selected based on their tolerance for mutations as observed in bacterial and mammalian screens. […] These cultures were centrifuged and supernatants containing secreted antibodies were harvested and diluted in HBS-EP+ running buffer (1:20 ratio).
Antibodies were captured on a Protein A chip (GE) by injecting 1:20 cell supernatant dilutions at 10 μL/min for 60 seconds. […] The sensor chip was regenerated by a 60 seconds injection of 10 mM Glycine pH 1.7 at the flow rate of 50 μL/min. […] For this setup, 1 μg/mL of purified antibody was injected over a Protein A chip at 10 μL/min for 25 seconds. […] The sensor chip was regenerated by a 60 seconds injection of 10 mM Glycine pH 1.7 at flow rate of 50 μL/min. Data analysis for supernatant and purified samples were performed using BIAevaluation software (GE). All sensorgrams were double reference subtracted and fit using a 1:1 Langmuir binding model.

Kd [nM]	koff [s⁻¹]	kon [M⁻¹ s⁻¹]	Binder
0.372	0.000712	1.91e+06	Anti-IL-6 antibody, heavy chain S35H, G66D, L100I / light chain M32L, M50D, N52S, M88Q (antibody, IgG1, V domains shown, IgG1; variable domains only; VL is variant III) VH: EVQLVESGGGLVQPGGSLRLSCAASGFTFSPFAMHWVRQAPGKGLEWVAKISPGGSWTYYSDTVTDRFTFSLDTSKSTAYLQMNSLRAEDTAVYYCARQIWGYYALDIWGQGTLVTVSS VL: DIQLTQSPSSLSASVGDRVTITCSASISVSYLYWYQQKPGKAPKLLIYDDSSLASGVPSRFSGSGSGTDFTLTISSLQPEDFATYYCQQWSGYPYTFGQGTKVEIK
0.18	0.00106	5.88e+06	Anti-IL-6 antibody, heavy chain S35H, G66D, L100K / light chain WT (antibody, IgG1, V domains shown, IgG1; variable domains only) VH: EVQLVESGGGLVQPGGSLRLSCAASGFTFSPFAMHWVRQAPGKGLEWVAKISPGGSWTYYSDTVTDRFTFSLDTSKSTAYLQMNSLRAEDTAVYYCARQKWGYYALDIWGQGTLVTVSS VL: DIQLTQSPSSLSASVGDRVTITCSASISVSYMYWYQQKPGKAPKLLIYDMSNLASGVPSRFSGSGSGTDFTLTISSLQPEDFATYYCMQWSGYPYTFGQGTKVEIK
0.692	0.000644	931000	Anti-IL-6 antibody, heavy chain S35H, G66D, L100I / light chain WT (antibody, IgG1, V domains shown, IgG1; variable domains only) VH: EVQLVESGGGLVQPGGSLRLSCAASGFTFSPFAMHWVRQAPGKGLEWVAKISPGGSWTYYSDTVTDRFTFSLDTSKSTAYLQMNSLRAEDTAVYYCARQIWGYYALDIWGQGTLVTVSS VL: DIQLTQSPSSLSASVGDRVTITCSASISVSYMYWYQQKPGKAPKLLIYDMSNLASGVPSRFSGSGSGTDFTLTISSLQPEDFATYYCMQWSGYPYTFGQGTKVEIK
0.422	0.000614	1.46e+06	Anti-IL-6 antibody, heavy chain S35H, G66D, L100F / light chain M32L, M50D, N52S, M88Q (antibody, IgG1, V domains shown, IgG1; variable domains only; VL is variant III) VH: EVQLVESGGGLVQPGGSLRLSCAASGFTFSPFAMHWVRQAPGKGLEWVAKISPGGSWTYYSDTVTDRFTFSLDTSKSTAYLQMNSLRAEDTAVYYCARQFWGYYALDIWGQGTLVTVSS VL: DIQLTQSPSSLSASVGDRVTITCSASISVSYLYWYQQKPGKAPKLLIYDDSSLASGVPSRFSGSGSGTDFTLTISSLQPEDFATYYCQQWSGYPYTFGQGTKVEIK
0.83	0.00129	1.55e+06	Anti-IL-6 antibody, heavy chain S35H, G66D, L100H / light chain M32L, M50D, N52S, M88Q (antibody, IgG1, V domains shown, IgG1; variable domains only; VL is variant III) VH: EVQLVESGGGLVQPGGSLRLSCAASGFTFSPFAMHWVRQAPGKGLEWVAKISPGGSWTYYSDTVTDRFTFSLDTSKSTAYLQMNSLRAEDTAVYYCARQHWGYYALDIWGQGTLVTVSS VL: DIQLTQSPSSLSASVGDRVTITCSASISVSYLYWYQQKPGKAPKLLIYDDSSLASGVPSRFSGSGSGTDFTLTISSLQPEDFATYYCQQWSGYPYTFGQGTKVEIK
0.3	0.00096	3.2e+06	Anti-IL-6 antibody, heavy chain S35H, G66D, L100G / light chain WT (antibody, IgG1, V domains shown, IgG1; variable domains only) VH: EVQLVESGGGLVQPGGSLRLSCAASGFTFSPFAMHWVRQAPGKGLEWVAKISPGGSWTYYSDTVTDRFTFSLDTSKSTAYLQMNSLRAEDTAVYYCARQGWGYYALDIWGQGTLVTVSS VL: DIQLTQSPSSLSASVGDRVTITCSASISVSYMYWYQQKPGKAPKLLIYDMSNLASGVPSRFSGSGSGTDFTLTISSLQPEDFATYYCMQWSGYPYTFGQGTKVEIK
0.244	0.000612	2.51e+06	Anti-IL-6 antibody, heavy chain S35H, G66D, L100F / light chain WT (antibody, IgG1, V domains shown, IgG1; variable domains only) VH: EVQLVESGGGLVQPGGSLRLSCAASGFTFSPFAMHWVRQAPGKGLEWVAKISPGGSWTYYSDTVTDRFTFSLDTSKSTAYLQMNSLRAEDTAVYYCARQFWGYYALDIWGQGTLVTVSS VL: DIQLTQSPSSLSASVGDRVTITCSASISVSYMYWYQQKPGKAPKLLIYDMSNLASGVPSRFSGSGSGTDFTLTISSLQPEDFATYYCMQWSGYPYTFGQGTKVEIK
0.688	0.000498	723000	Anti-IL-6 antibody, heavy chain S35H, G66D, L100H / light chain WT (antibody, IgG1, V domains shown, IgG1; variable domains only) VH: EVQLVESGGGLVQPGGSLRLSCAASGFTFSPFAMHWVRQAPGKGLEWVAKISPGGSWTYYSDTVTDRFTFSLDTSKSTAYLQMNSLRAEDTAVYYCARQHWGYYALDIWGQGTLVTVSS VL: DIQLTQSPSSLSASVGDRVTITCSASISVSYMYWYQQKPGKAPKLLIYDMSNLASGVPSRFSGSGSGTDFTLTISSLQPEDFATYYCMQWSGYPYTFGQGTKVEIK

Second part, the binder before the results:

Binder	Kd [nM]	koff [s⁻¹]	kon [M⁻¹ s⁻¹]
Anti-IL-6 antibody, heavy chain S35H, G66D / light chain WT (antibody, IgG1, V domains shown, IgG1; variable domains only) VH: EVQLVESGGGLVQPGGSLRLSCAASGFTFSPFAMHWVRQAPGKGLEWVAKISPGGSWTYYSDTVTDRFTFSLDTSKSTAYLQMNSLRAEDTAVYYCARQLWGYYALDIWGQGTLVTVSS VL: DIQLTQSPSSLSASVGDRVTITCSASISVSYMYWYQQKPGKAPKLLIYDMSNLASGVPSRFSGSGSGTDFTLTISSLQPEDFATYYCMQWSGYPYTFGQGTKVEIK	0.374	0.000548	1.46e+06
Anti-IL-6 antibody, heavy chain S35H, G66D, L100D / light chain M32L, M50D, N52S, M88Q (antibody, IgG1, V domains shown, IgG1; variable domains only; VL is variant III) VH: EVQLVESGGGLVQPGGSLRLSCAASGFTFSPFAMHWVRQAPGKGLEWVAKISPGGSWTYYSDTVTDRFTFSLDTSKSTAYLQMNSLRAEDTAVYYCARQDWGYYALDIWGQGTLVTVSS VL: DIQLTQSPSSLSASVGDRVTITCSASISVSYLYWYQQKPGKAPKLLIYDDSSLASGVPSRFSGSGSGTDFTLTISSLQPEDFATYYCQQWSGYPYTFGQGTKVEIK	0.35	0.00202	5.77e+06
Anti-IL-6 antibody, heavy chain S35H, G66D, L100E / light chain WT (antibody, IgG1, V domains shown, IgG1; variable domains only) VH: EVQLVESGGGLVQPGGSLRLSCAASGFTFSPFAMHWVRQAPGKGLEWVAKISPGGSWTYYSDTVTDRFTFSLDTSKSTAYLQMNSLRAEDTAVYYCARQEWGYYALDIWGQGTLVTVSS VL: DIQLTQSPSSLSASVGDRVTITCSASISVSYMYWYQQKPGKAPKLLIYDMSNLASGVPSRFSGSGSGTDFTLTISSLQPEDFATYYCMQWSGYPYTFGQGTKVEIK	0.766	0.000869	1.13e+06
Anti-IL-6 antibody, heavy chain S35H, G66D, L100E / light chain M32L, M50D, N52S, M88Q (antibody, IgG1, V domains shown, IgG1; variable domains only; VL is variant III) VH: EVQLVESGGGLVQPGGSLRLSCAASGFTFSPFAMHWVRQAPGKGLEWVAKISPGGSWTYYSDTVTDRFTFSLDTSKSTAYLQMNSLRAEDTAVYYCARQEWGYYALDIWGQGTLVTVSS VL: DIQLTQSPSSLSASVGDRVTITCSASISVSYLYWYQQKPGKAPKLLIYDDSSLASGVPSRFSGSGSGTDFTLTISSLQPEDFATYYCQQWSGYPYTFGQGTKVEIK	0.704	0.00145	2.05e+06
Anti-IL-6 antibody, heavy chain S35H, G66D, L100A / light chain WT (antibody, IgG1, V domains shown, IgG1; variable domains only) VH: EVQLVESGGGLVQPGGSLRLSCAASGFTFSPFAMHWVRQAPGKGLEWVAKISPGGSWTYYSDTVTDRFTFSLDTSKSTAYLQMNSLRAEDTAVYYCARQAWGYYALDIWGQGTLVTVSS VL: DIQLTQSPSSLSASVGDRVTITCSASISVSYMYWYQQKPGKAPKLLIYDMSNLASGVPSRFSGSGSGTDFTLTISSLQPEDFATYYCMQWSGYPYTFGQGTKVEIK	0.184	0.000833	4.52e+06
Anti-IL-6 antibody, heavy chain G66D / light chain M32L, M50D, N52S, M88Q (antibody, IgG1, V domains shown, IgG1; variable domains only; VL is variant III) VH: EVQLVESGGGLVQPGGSLRLSCAASGFTFSPFAMSWVRQAPGKGLEWVAKISPGGSWTYYSDTVTDRFTFSLDTSKSTAYLQMNSLRAEDTAVYYCARQLWGYYALDIWGQGTLVTVSS VL: DIQLTQSPSSLSASVGDRVTITCSASISVSYLYWYQQKPGKAPKLLIYDDSSLASGVPSRFSGSGSGTDFTLTISSLQPEDFATYYCQQWSGYPYTFGQGTKVEIK	0.393	0.000654	1.66e+06
Anti-IL-6 antibody, heavy chain S35H, G66D, L100D / light chain WT (antibody, IgG1, V domains shown, IgG1; variable domains only) VH: EVQLVESGGGLVQPGGSLRLSCAASGFTFSPFAMHWVRQAPGKGLEWVAKISPGGSWTYYSDTVTDRFTFSLDTSKSTAYLQMNSLRAEDTAVYYCARQDWGYYALDIWGQGTLVTVSS VL: DIQLTQSPSSLSASVGDRVTITCSASISVSYMYWYQQKPGKAPKLLIYDMSNLASGVPSRFSGSGSGTDFTLTISSLQPEDFATYYCMQWSGYPYTFGQGTKVEIK	0.447	0.000799	1.79e+06
Anti-IL-6 antibody, heavy chain G66D / light chain WT (antibody, IgG1, V domains shown, IgG1; variable domains only) VH: EVQLVESGGGLVQPGGSLRLSCAASGFTFSPFAMSWVRQAPGKGLEWVAKISPGGSWTYYSDTVTDRFTFSLDTSKSTAYLQMNSLRAEDTAVYYCARQLWGYYALDIWGQGTLVTVSS VL: DIQLTQSPSSLSASVGDRVTITCSASISVSYMYWYQQKPGKAPKLLIYDMSNLASGVPSRFSGSGSGTDFTLTISSLQPEDFATYYCMQWSGYPYTFGQGTKVEIK	0.296	0.00048	1.62e+06
